Experimental findings from publication PMC7878818 are described below.

Assay [1] has as its target Spindlin1/C11orf84 complex (human) (UniProt Q9BUA3). In words: ITC; 25 °C, MicroCal ITC200; 20 mM HEPES pH 7.5, 150 mM NaCl; 0.8 mM H3 peptide injected into 50 μM protein or complex in the sample cell. In general terms: Isothermal titration calorimetry measures the heat released or taken up as one component is titrated into another.
In assay [2] the target is Spindlin1 (aa: 50–262) (human) (UniProt Q9Y657). The assay can be described thus: ITC; 25 °C, MicroCal ITC200; 20 mM HEPES pH 7.5, 150 mM NaCl; 50 μM Spindlin1 or Spindlin1/C11orf84 complex in the cell, 0.8 mM peptide injected.
Sequence of Spindlin1 (aa: 50–262) (human) (Q9Y657 50-262): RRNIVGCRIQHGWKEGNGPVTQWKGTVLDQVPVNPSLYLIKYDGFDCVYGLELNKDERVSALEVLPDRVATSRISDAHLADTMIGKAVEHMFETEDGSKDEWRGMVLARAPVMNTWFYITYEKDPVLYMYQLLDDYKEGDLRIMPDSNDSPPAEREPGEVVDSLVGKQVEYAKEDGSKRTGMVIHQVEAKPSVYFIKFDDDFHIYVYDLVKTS
Assay [3] has as its target Spindlin1 F141A/C11orf84 complex (human) (UniProt Q9Y657). The assay is described as above.
Target sequence in this assay (Q9Y657 50-262 F141A, chain 1 of 2): as the sequence (Q9Y657 50-262) above, with F92A counted along it
Target sequence in this assay (Q9BUA3 whole entry, chain 2 of 2, further chain): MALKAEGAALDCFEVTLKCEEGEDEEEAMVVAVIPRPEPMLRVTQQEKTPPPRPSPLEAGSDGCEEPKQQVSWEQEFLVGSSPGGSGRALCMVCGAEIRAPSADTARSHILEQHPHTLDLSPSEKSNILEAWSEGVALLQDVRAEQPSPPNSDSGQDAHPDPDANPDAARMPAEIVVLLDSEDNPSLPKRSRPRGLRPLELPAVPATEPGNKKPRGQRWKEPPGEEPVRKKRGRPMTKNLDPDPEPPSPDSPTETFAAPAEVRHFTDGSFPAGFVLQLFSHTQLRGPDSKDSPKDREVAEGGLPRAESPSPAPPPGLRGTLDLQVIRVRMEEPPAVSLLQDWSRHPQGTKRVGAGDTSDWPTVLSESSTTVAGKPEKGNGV
The target of assay [4] is Spindlin1 W62A/C11orf84 complex (human) (UniProt Q9Y657). Described as above.
Target sequence in this assay (Q9Y657 50-262 W62A, chain 1 of 2): as the sequence (Q9Y657 50-262) above, with W13A counted along it
Target sequence in this assay (Q9BUA3 whole entry, chain 2 of 2, further chain): as the sequence (Q9BUA3 whole entry, chain 2 of 2, further chain) above
Assay [5] addresses Spindlin1 W62A/W72A/C11orf84 complex (human) (UniProt Q9Y657). The assay is described as above.
Target sequence in this assay (Q9Y657 50-262 W62A/W72A, chain 1 of 2): as the sequence (Q9Y657 50-262) above, with W13A, W23A counted along it
Target sequence in this assay (Q9BUA3 whole entry, chain 2 of 2, further chain): as the sequence (Q9BUA3 whole entry, chain 2 of 2, further chain) above
In assay [6] the target is Spindlin1 W72A/C11orf84 complex (human) (UniProt Q9Y657). The assay is described as above.
Target sequence in this assay (Q9Y657 50-262 W72A, chain 1 of 2): as the sequence (Q9Y657 50-262) above, with W23A counted along it
Target sequence in this assay (Q9BUA3 whole entry, chain 2 of 2, further chain): as the sequence (Q9BUA3 whole entry, chain 2 of 2, further chain) above
The target in assay [7] is Spindlin1 Y91A/C11orf84 complex (human) (UniProt Q9Y657). The description is as above.
Target sequence in this assay (Q9Y657 50-262 Y91A, chain 1 of 2): as the sequence (Q9Y657 50-262) above, with Y42A counted along it
Target sequence in this assay (Q9BUA3 whole entry, chain 2 of 2, further chain): as the sequence (Q9BUA3 whole entry, chain 2 of 2, further chain) above
Assay [8] has as its target Spindlin1 Y98A/C11orf84 complex (human) (UniProt Q9Y657). The assay is described as above.
Target sequence in this assay (Q9Y657 50-262 Y98A, chain 1 of 2): as the sequence (Q9Y657 50-262) above, with Y49A counted along it
Target sequence in this assay (Q9BUA3 whole entry, chain 2 of 2, further chain): as the sequence (Q9BUA3 whole entry, chain 2 of 2, further chain) above
Assay [9] deals with Spindlin1/C11orf84 complex (human) (UniProt Q9Y657). The assay is described as above.
Assay [10] concerns the target Spindlin1 D173A/C11orf84 complex (human) (UniProt Q9Y657). The assay can be described thus: ITC; 25 °C, MicroCal ITC200; 20 mM HEPES pH 7.5, 150 mM NaCl; 0.8 mM H3 peptide injected into 50 μM protein or complex in the sample cell.
Assay [11] addresses Spindlin1 F141A/C11orf84 complex (human) (UniProt Q9Y657). The assay is described as above.
Assay [12] addresses Spindlin1 W62A/C11orf84 complex (human) (UniProt Q9Y657). The assay is described as above.
Assay [13] has as its target Spindlin1 W62A/W72A/C11orf84 complex (human) (UniProt Q9Y657). The assay is described as above.
For assay [14], the target named is Spindlin1 W72A/C11orf84 complex (human) (UniProt Q9Y657). The assay is described as above.
In assay [15] the target is Spindlin1 Y91A/C11orf84 complex (human) (UniProt Q9Y657). The description is as above.
Assay [16] deals with Spindlin1 Y98A/C11orf84 complex (human) (UniProt Q9Y657). Described as above.

For H3K4me3 peptide, H3 (1-12), in assay [1], the Kd (usually the free concentration of one partner at which half of the binding sites on the other are occupied at equilibrium, for simple one-to-one binding) stood at 213 nM and the stoichiometry N (in general, a count of units in the complex or per binding partner) was 1.01.

In assay [1], H3K4me3K9me2 peptide, H3 (1-12) came in with a Kd of 42 nM and a stoichiometry N of 1.01.

In the case of H3K4me3K9me3 peptide, the results for the Kd in assay [2] and in [9] were 46 nM and 20 nM, respectively. The fold reduction in binding affinity against wild type in assay [3] turned out to be 40 fold; in assay [4], 3 fold; in assay [5], 10 fold; in assay [6], 3 fold; in [7], 3 fold; in assay [8], 3 fold.

For the substance H3K4me3K9me3 peptide, H3 (1-12), the stoichiometry N in assay [10] worked out at 1.04; in [11] it was 1.03; in [12], 1.06; in assay [13] it was 1; in assay [14], 1.07; in assay [15], 1.07. Further, the stoichiometry N in assay [16] came out at 1.07; in [1], 1.02.

In the case of H3K4me3R8me2a peptide, H3 (1-12), in assay [1], the Kd amounted to 82 nM and the stoichiometry N is 1.04.

As to H3K9me3 peptide, H3 (1-12), in assay [1], the Kd is 2880 nM and the stoichiometry N was determined as 1.02.
